In patent US20240109955A1:

Assays:
Assay in all cases: cell-based or functional assay
[1] = target: SARS-CoV-2 spike protein, Alpha variant (B.1.1.7) (SARS-CoV-2)
[2] = target: SARS-CoV-2 spike protein, Iota variant (B.1.526) (SARS-CoV-2)
[3] = target: SARS-CoV-2 spike protein, Beta variant 1 (B.1.351 v1) (SARS-CoV-2)
[4] = target: SARS-CoV-2 spike protein, Gamma variant (P.1) (SARS-CoV-2)
[5] = target: SARS-CoV-2 spike protein, Mu variant (B.1.621) (SARS-CoV-2)
[6] = target: SARS-CoV-2 spike protein, Lambda variant (C.37) (SARS-CoV-2)
[7] = target: SARS-CoV-2 spike (S) protein, Omicron variant BA.2 (SARS-CoV-2) (UniProt P0DTC2)
[8] = target: SARS-CoV-2 spike protein, Delta variant (B.1.617.2) (SARS-CoV-2)
[9] = target: SARS-CoV-2 spike protein, Delta variant (AY.1) (SARS-CoV-2)
[10] = target: SARS-CoV-2 spike (S) protein, Omicron variant BA.1 (SARS-CoV-2) (UniProt P0DTC2)
[11] = target: SARS-CoV-2 spike protein, Kappa variant (B.1.617.1) (SARS-CoV-2)
[12] = target: SARS-CoV-2 spike protein, C.1.2 variant (SARS-CoV-2)
[13] = target: SARS-CoV-2 spike (S) protein, Omicron variant BA.2.12.1 (SARS-CoV-2) (UniProt P0DTC2)
[14] = target: SARS-CoV-2 spike protein, Omicron sublineage BF.7 (R346T, F486V) (SARS-CoV-2) (UniProt P0DTC2)
[15] = target: SARS-CoV-2 spike protein, Omicron sublineage BA.4.6 (R346T, F486V) (SARS-CoV-2) (UniProt P0DTC2)
[16] = target: SARS-CoV-2 spike protein, Omicron sublineage BA.4.7 (R346S, F486V) (SARS-CoV-2) (UniProt P0DTC2)
[17] = target: SARS-CoV-2 spike protein, Omicron sublineage BQ.1.1 (R346T, K444T, F486V) (SARS-CoV-2) (UniProt P0DTC2)
[18] = target: SARS-CoV-2 spike protein, Omicron sublineage BA.1.1 (R346K) (SARS-CoV-2) (UniProt P0DTC2)
[19] = target: SARS-CoV-2 spike protein, Omicron variant (B.1.1.529) (SARS-CoV-2) (UniProt P0DTC2)
[20] = target: SARS-CoV-2 spike (S) protein, Omicron sublineage BQ 1.1 (R346T, K444T, F486V) (SARS-CoV-2) (UniProt P0DTC2)
[21] = target: SARS-CoV-2 spike (S) protein, Omicron sublineage BA.4.6 (R346T, F486V) (SARS-CoV-2) (UniProt P0DTC2)
[22] = target: SARS-CoV-2 spike (S) protein, Omicron sublineage BF.7 (R346T, F486V) (SARS-CoV-2) (UniProt P0DTC2)
[23] = target: SARS-CoV-2 spike (S) protein, Omicron sublineage BA.4.7 (R346S, F486V) (SARS-CoV-2) (UniProt P0DTC2)
[24] = target: SARS-CoV-2 Omicron BA.4.6 spike protein (R346T, F486V) (SARS-CoV-2) (UniProt P0DTC2)
[25] = target: SARS-CoV-2 spike (S) protein, Omicron sublineage BA.1.1 (R346K) (SARS-CoV-2) (UniProt P0DTC2)
[26] = target: SARS-CoV-2 spike (S) protein, Omicron variant BA.4/5 (SARS-CoV-2) (UniProt P0DTC2)
[27] = target: SARS-CoV-2 spike (S) protein, Mu variant (B.1.621) (SARS-CoV-2) (UniProt P0DTC2)
[28] = target: SARS-CoV-2 spike (S) protein, C.1.2 variant (SARS-CoV-2) (UniProt P0DTC2)
[29] = target: SARS-CoV-2 spike protein, Beta variant 1 (B.1.351.v1) (SARS-CoV-2)

A19-46 mAb (antibody), sequence (VH): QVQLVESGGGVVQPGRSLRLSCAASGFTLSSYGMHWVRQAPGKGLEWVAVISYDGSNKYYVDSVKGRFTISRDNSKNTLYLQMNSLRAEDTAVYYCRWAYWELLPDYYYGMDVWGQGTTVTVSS
A19-46 mAb (antibody), sequence (VL): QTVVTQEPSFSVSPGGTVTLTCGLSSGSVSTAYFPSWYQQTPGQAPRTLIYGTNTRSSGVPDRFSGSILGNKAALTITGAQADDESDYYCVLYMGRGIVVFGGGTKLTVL
MX184 (B1-182 × A19-61) (bispecific antibody), sequence (chain): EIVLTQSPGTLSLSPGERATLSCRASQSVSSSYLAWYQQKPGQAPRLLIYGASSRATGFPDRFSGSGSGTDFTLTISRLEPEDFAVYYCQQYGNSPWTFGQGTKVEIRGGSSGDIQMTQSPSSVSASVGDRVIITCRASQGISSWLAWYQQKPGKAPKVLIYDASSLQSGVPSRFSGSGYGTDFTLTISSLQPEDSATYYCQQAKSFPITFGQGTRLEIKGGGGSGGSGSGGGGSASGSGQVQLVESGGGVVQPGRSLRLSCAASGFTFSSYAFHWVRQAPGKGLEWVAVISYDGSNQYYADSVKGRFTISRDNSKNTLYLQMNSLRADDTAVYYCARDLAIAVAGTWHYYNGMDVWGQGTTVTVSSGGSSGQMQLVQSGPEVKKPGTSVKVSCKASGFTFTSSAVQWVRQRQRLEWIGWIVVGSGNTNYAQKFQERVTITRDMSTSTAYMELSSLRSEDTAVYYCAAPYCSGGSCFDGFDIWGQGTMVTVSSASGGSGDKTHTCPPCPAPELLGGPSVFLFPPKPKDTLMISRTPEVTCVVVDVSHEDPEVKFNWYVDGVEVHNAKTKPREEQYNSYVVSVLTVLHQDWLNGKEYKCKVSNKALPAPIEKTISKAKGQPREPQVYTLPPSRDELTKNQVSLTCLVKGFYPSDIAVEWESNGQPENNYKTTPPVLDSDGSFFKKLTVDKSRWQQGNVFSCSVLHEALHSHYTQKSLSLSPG
MX492 (A19-46 x A23-58H/B1-182L) (bispecific antibody), sequence (chain): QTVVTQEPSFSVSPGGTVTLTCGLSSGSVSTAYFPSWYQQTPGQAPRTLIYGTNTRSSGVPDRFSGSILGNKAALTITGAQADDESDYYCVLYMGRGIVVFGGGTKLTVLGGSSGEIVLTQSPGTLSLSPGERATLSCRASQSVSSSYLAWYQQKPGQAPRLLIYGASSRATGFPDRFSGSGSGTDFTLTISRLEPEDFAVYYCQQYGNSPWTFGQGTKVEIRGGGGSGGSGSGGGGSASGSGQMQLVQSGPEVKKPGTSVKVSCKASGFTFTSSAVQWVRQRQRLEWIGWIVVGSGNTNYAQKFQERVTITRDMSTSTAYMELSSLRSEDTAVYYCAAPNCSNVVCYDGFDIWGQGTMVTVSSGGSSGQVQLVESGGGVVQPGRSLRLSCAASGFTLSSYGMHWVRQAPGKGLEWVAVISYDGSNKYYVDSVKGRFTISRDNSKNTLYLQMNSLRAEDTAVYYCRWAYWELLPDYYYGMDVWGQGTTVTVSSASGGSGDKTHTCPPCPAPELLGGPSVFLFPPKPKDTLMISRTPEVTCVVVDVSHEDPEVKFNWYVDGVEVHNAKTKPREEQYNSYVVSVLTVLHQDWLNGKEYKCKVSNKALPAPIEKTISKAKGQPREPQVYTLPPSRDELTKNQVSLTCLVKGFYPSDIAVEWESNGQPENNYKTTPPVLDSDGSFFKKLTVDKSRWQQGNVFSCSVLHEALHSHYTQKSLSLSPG
MX413 (A19-61 x A23-58H/B1-182L) (bispecific antibody), sequence (chain): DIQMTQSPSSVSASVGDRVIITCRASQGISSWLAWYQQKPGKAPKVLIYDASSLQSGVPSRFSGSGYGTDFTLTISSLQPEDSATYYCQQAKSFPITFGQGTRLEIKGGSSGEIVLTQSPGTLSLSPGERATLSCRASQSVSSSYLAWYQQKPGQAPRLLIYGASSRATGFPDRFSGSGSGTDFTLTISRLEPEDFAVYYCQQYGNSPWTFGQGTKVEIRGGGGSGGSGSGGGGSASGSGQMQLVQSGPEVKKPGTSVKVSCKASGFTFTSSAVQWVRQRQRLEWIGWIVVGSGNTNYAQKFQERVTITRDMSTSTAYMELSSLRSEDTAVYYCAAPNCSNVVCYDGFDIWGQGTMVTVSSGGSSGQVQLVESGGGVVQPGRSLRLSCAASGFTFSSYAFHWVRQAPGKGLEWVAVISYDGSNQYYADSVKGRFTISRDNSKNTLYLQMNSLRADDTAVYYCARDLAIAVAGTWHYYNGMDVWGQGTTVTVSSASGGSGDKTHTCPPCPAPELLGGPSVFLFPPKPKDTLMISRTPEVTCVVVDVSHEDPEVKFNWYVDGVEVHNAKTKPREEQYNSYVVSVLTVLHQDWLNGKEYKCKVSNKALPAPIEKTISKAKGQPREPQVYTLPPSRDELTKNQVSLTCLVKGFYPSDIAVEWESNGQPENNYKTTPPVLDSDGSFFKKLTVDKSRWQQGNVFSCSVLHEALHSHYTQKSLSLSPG

A19-46 mAb (antibody)
IC50, pseudovirus neutralization [1]: 0.19 nM | IC80, pseudovirus neutralization [1]: 0.486 nM | IC50, pseudovirus neutralization [2]: 0.803 nM | IC80, pseudovirus neutralization [2]: 1.88 nM | IC50, pseudovirus neutralization [3]: 0.807 nM | IC80, pseudovirus neutralization [3]: 2.07 nM | IC50, pseudovirus neutralization [4]: 0.26 nM | IC80, pseudovirus neutralization [4]: 0.7 nM | IC50, pseudovirus neutralization [5]: 1.34 nM | IC80, pseudovirus neutralization [5]: 3.81 nM | IC50, pseudovirus neutralization [6]: > 66.7 nM | IC80, pseudovirus neutralization [6]: > 66.7 nM | IC50, pseudovirus neutralization [7]: 0.0645 nM | IC80, pseudovirus neutralization [7]: 0.177 nM | IC50, pseudovirus neutralization [8]: > 66.7 nM | IC80, pseudovirus neutralization [8]: > 66.7 nM | IC50, pseudovirus neutralization [9]: > 66.7 nM | IC80, pseudovirus neutralization [9]: > 66.7 nM | IC50, pseudovirus neutralization [10]: 0.958 nM | IC80, pseudovirus neutralization [10]: 2.28 nM | IC50, pseudovirus neutralization [11]: > 66.7 nM | IC80, pseudovirus neutralization [11]: > 66.7 nM | IC50, pseudovirus neutralization [12]: 11.6 nM | IC80, pseudovirus neutralization [12]: 21 nM | IC50, pseudovirus neutralization [13]: > 66.7 nM | IC80, pseudovirus neutralization [13]: > 66.7 nM

MX500 (A19-46 × A23-58H/B1-182L/A23-58H/B1-182L × A19-61)
IC50, pseudovirus neutralization [7]: 0.0151 nM | IC80, pseudovirus neutralization [7]: 0.0503 nM | IC50, pseudovirus neutralization [10]: 0.0639 nM | IC80, pseudovirus neutralization [10]: 0.204 nM | IC50, pseudovirus neutralization [13]: 0.0655 nM | IC80, pseudovirus neutralization [13]: 0.145 nM | IC50, pseudovirus neutralization [14]: > 10000 nM | IC80, pseudovirus neutralization [14]: > 10000 nM | IC50, pseudovirus neutralization [15]: > 10000 nM | IC80, pseudovirus neutralization [15]: > 10000 nM | IC50, pseudovirus neutralization [16]: > 10000 nM | IC80, pseudovirus neutralization [16]: > 10000 nM | IC50, pseudovirus neutralization [17]: > 10000 nM | IC80, pseudovirus neutralization [17]: > 10000 nM | IC50, pseudovirus neutralization [18]: 45.1 nM | IC80, pseudovirus neutralization [18]: 83.4 nM

A23-58.1 (antibody)
IC50, pseudovirus neutralization [19]: 98.1 nM | IC80, pseudovirus neutralization [19]: 782 nM

MX492 (A19-46 x A23-58H/B1-182L) (bispecific antibody)
IC50, pseudovirus neutralization [20]: > 10000 nM | IC80, pseudovirus neutralization [20]: > 10000 nM | IC50, pseudovirus neutralization [21]: 21.4 nM | IC80, pseudovirus neutralization [21]: 24.5 nM | IC50, pseudovirus neutralization [22]: > 10000 nM | IC80, pseudovirus neutralization [22]: > 10000 nM | IC50, pseudovirus neutralization [23]: 13.3 nM | IC80, pseudovirus neutralization [23]: 154 nM | IC50, pseudovirus neutralization [24]: > 10000 nM | IC80, pseudovirus neutralization [24]: > 10000 nM | IC50, pseudovirus neutralization [25]: 8.77 nM | IC80, pseudovirus neutralization [25]: 68 nM

S2E12 (antibody)
IC50, pseudovirus neutralization [19]: 8.8 nM | IC80, pseudovirus neutralization [19]: 38.5 nM

B1-182 mAb (antibody)
IC50, pseudovirus neutralization [1]: 0.0262 nM | IC80, pseudovirus neutralization [1]: 0.0844 nM | IC50, pseudovirus neutralization [2]: 0.0639 nM | IC80, pseudovirus neutralization [2]: 0.183 nM | IC50, pseudovirus neutralization [3]: 0.0357 nM | IC80, pseudovirus neutralization [3]: 0.139 nM | IC50, pseudovirus neutralization [4]: 0.0182 nM | IC80, pseudovirus neutralization [4]: 0.0429 nM | IC50, pseudovirus neutralization [5]: 0.0695 nM | IC80, pseudovirus neutralization [5]: 0.219 nM | IC50, pseudovirus neutralization [6]: 0.0049 nM | IC80, pseudovirus neutralization [6]: 0.015 nM | IC50, pseudovirus neutralization [7]: 2.34 nM | IC80, pseudovirus neutralization [7]: 8.19 nM | IC50, pseudovirus neutralization [8]: 0.0099 nM | IC80, pseudovirus neutralization [8]: 0.0254 nM | IC50, pseudovirus neutralization [9]: 0.008 nM | IC80, pseudovirus neutralization [9]: 0.0192 nM | IC50, pseudovirus neutralization [10]: 1.03 nM | IC80, pseudovirus neutralization [10]: 4.44 nM | IC50, pseudovirus neutralization [11]: 0.0261 nM | IC80, pseudovirus neutralization [11]: 0.086 nM | IC50, pseudovirus neutralization [12]: 0.0549 nM | IC80, pseudovirus neutralization [12]: 0.11 nM | IC50, pseudovirus neutralization [13]: 0.739 nM | IC80, pseudovirus neutralization [13]: 5.92 nM

MX413 (A19-61 x A23-58H/B1-182L) (bispecific antibody)
IC50, pseudovirus neutralization [20]: > 10000 nM | IC80, pseudovirus neutralization [20]: > 10000 nM | IC50, pseudovirus neutralization [21]: 56 nM | IC80, pseudovirus neutralization [21]: 155 nM | IC50, pseudovirus neutralization [22]: 28.1 nM | IC80, pseudovirus neutralization [22]: 177 nM | IC50, pseudovirus neutralization [23]: 77.9 nM | IC80, pseudovirus neutralization [23]: 126 nM | IC50, pseudovirus neutralization [24]: 10 nM | IC80, pseudovirus neutralization [24]: 25 nM | IC50, pseudovirus neutralization [25]: 2.24 nM | IC80, pseudovirus neutralization [25]: 10.5 nM

MX501 (A19-46 × A23-58H/B1-182L/A19-61 × A23-58H/B1-182L)
IC50, pseudovirus neutralization [7]: 0.0097 nM | IC80, pseudovirus neutralization [7]: 0.025 nM | IC50, pseudovirus neutralization [10]: 0.0285 nM | IC80, pseudovirus neutralization [10]: 0.0876 nM | IC50, pseudovirus neutralization [13]: 0.0405 nM | IC80, pseudovirus neutralization [13]: 0.0927 nM | IC50, pseudovirus neutralization [14]: > 10000 nM | IC80, pseudovirus neutralization [14]: > 10000 nM | IC50, pseudovirus neutralization [15]: > 10000 nM | IC80, pseudovirus neutralization [15]: > 10000 nM | IC50, pseudovirus neutralization [16]: > 10000 nM | IC80, pseudovirus neutralization [16]: > 10000 nM | IC50, pseudovirus neutralization [17]: > 10000 nM | IC80, pseudovirus neutralization [17]: > 10000 nM | IC50, pseudovirus neutralization [18]: 20.5 nM | IC80, pseudovirus neutralization [18]: 77.2 nM

MX184 (B1-182 × A19-61) (bispecific antibody)
IC50, pseudovirus neutralization [1]: 0.0772 nM | IC80, pseudovirus neutralization [1]: 0.186 nM | IC50, pseudovirus neutralization [3]: 0.0441 nM | IC80, pseudovirus neutralization [3]: 0.12 nM | IC50, pseudovirus neutralization [4]: 0.0325 nM | IC80, pseudovirus neutralization [4]: 0.137 nM | IC50, pseudovirus neutralization [8]: 0.0129 nM | IC80, pseudovirus neutralization [8]: 0.0458 nM | IC50, pseudovirus neutralization [9]: 0.0174 nM | IC80, pseudovirus neutralization [9]: 0.03 nM | IC50, pseudovirus neutralization [10]: 47.6 nM | IC80, pseudovirus neutralization [10]: > 66.7 nM

A23_58.1 (antibody)
IC50, pseudovirus neutralization [1]: 0.0329 nM | IC80, pseudovirus neutralization [1]: 0.104 nM | IC50, pseudovirus neutralization [4]: 0.0097 nM | IC80, pseudovirus neutralization [4]: 0.0437 nM | pseudovirus neutralization IC50 (nM (inferred)) [26]: > 66.7 | pseudovirus neutralization IC80 (nM (inferred)) [26]: > 66.7 | pseudovirus neutralization IC50 (nM (inferred)) [7]: 1.72 | pseudovirus neutralization IC80 (nM (inferred)) [7]: 6.12 | IC50, pseudovirus neutralization [8]: 0.0133 nM | IC80, pseudovirus neutralization [8]: 0.0358 nM | pseudovirus neutralization IC50 (nM (inferred)) [10]: 0.853 | pseudovirus neutralization IC80 (nM (inferred)) [10]: 4.24 | pseudovirus neutralization IC50 (nM (inferred)) [27]: 0.124 | pseudovirus neutralization IC80 (nM (inferred)) [27]: 0.26 | pseudovirus neutralization IC50 (nM (inferred)) [13]: 0.647 | pseudovirus neutralization IC80 (nM (inferred)) [13]: 4.96 | pseudovirus neutralization IC50 (nM (inferred)) [28]: 0.0287 | pseudovirus neutralization IC80 (nM (inferred)) [28]: 0.0656 | IC50, pseudovirus neutralization [29]: 0.123 nM | IC80, pseudovirus neutralization [29]: 0.339 nM

A19-61 mAb (antibody)
IC50, pseudovirus neutralization [1]: 0.175 nM | IC80, pseudovirus neutralization [1]: 0.325 nM | IC50, pseudovirus neutralization [2]: 0.0418 nM | IC80, pseudovirus neutralization [2]: 0.0836 nM | IC50, pseudovirus neutralization [3]: 0.0686 nM | IC80, pseudovirus neutralization [3]: 0.113 nM | IC50, pseudovirus neutralization [4]: 0.135 nM | IC80, pseudovirus neutralization [4]: 0.288 nM | IC50, pseudovirus neutralization [5]: 0.264 nM | IC80, pseudovirus neutralization [5]: 0.43 nM | IC50, pseudovirus neutralization [6]: 0.11 nM | IC80, pseudovirus neutralization [6]: 0.186 nM | IC50, pseudovirus neutralization [7]: 0.725 nM | IC80, pseudovirus neutralization [7]: 2.24 nM | IC50, pseudovirus neutralization [8]: 0.209 nM | IC80, pseudovirus neutralization [8]: 0.292 nM | IC50, pseudovirus neutralization [9]: 0.0557 nM | IC80, pseudovirus neutralization [9]: 0.121 nM | IC50, pseudovirus neutralization [10]: > 66.7 nM | IC80, pseudovirus neutralization [10]: > 66.7 nM | IC50, pseudovirus neutralization [11]: 0.0815 nM | IC80, pseudovirus neutralization [11]: 0.173 nM | IC50, pseudovirus neutralization [12]: 8.43 nM | IC80, pseudovirus neutralization [12]: > 66.7 nM | IC50, pseudovirus neutralization [13]: 0.11 nM | IC80, pseudovirus neutralization [13]: 0.298 nM
